Measurements as given in IntAct's records for PubMed 31515488.

B1: SHC-transforming protein 1 (Homo sapiens), P29353 (parent)
chain: MDLLPPKPKYNPLRNESLSSLEEGASGSTPPEELPSPSASSLGPILPPLPGDDSPTTLCSFFPRMSNLRLANPAGGRPGSKGEPGRAADDGEGIVGAAMPDSGPLPLLQDMNKLSGGGGRRTRVEGGQLGGEEWTRHGSFVNKPTRGWLHPNDKVMGPGVSYLVRYMGCVEVLQSMRALDFNTRTQVTREAISLVCEAVPGAKGATRRRKPCSRPLSSILGRSNLKFAGMPITLTVSTSSLNLMAADCKQIIANHHMQSISFASGGDPDTAEYVAYVAKDPVNQRACHILECPEGLAQDVISTIGQAFELRFKQYLRNPPKLVTPHDRMAGFDGSAWDEEEEEPPDHQYYNDFPGKEPPLGGVVDMRLREGAAPGAARPTAPNAQTPSHLGATLPVGQPVGGDPEVRKQMPPPPPCPGRELFDDPSYVNVQNLDKARQAVGGAGPPNPAINGSAPRDLFDMKPFEDALRVPPPPQSVSMAEQLRGEPWFHGKLSRREAEALLQLNGDFLVRESTTTPGQYVLTGLQSGQPKHLLLVDPEGVVRTKDHRFESVSHLISYHMDNHLPIISAGSELCLQQPVERKL
partner: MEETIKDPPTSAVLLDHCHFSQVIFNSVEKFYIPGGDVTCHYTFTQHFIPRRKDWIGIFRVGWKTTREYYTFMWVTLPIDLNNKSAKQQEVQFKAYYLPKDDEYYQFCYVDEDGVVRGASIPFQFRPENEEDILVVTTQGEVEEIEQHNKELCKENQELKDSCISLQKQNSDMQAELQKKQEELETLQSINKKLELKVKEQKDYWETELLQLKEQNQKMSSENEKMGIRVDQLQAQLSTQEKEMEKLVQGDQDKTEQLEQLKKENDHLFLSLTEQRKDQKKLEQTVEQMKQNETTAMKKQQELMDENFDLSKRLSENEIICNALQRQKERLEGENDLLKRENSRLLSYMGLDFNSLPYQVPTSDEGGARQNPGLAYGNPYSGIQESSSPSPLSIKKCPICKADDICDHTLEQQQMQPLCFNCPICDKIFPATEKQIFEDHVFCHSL
B2: Keratin-associated protein 12-1 (Homo sapiens), P59990 (parent)
chain: MCHTSCSSGCQPACCAPSPCQASCYIPVGCQSSVCVPVSFKPAVCVPVRCQSSVCVPVSCRPVVYAAPSCQSSGCCQPSCTSVLCRPISCSTPSCC
B3: Migration and invasion-inhibitory protein (Homo sapiens), Q5JXC2 (parent)
chain: MVEAEELAQLRLLNLELLRQLWVGQDAVRRSVARAASESSLESSSSYNSETPSTPETSSTSLSTSCPRGRSSVWGPPDACRGDLRDVARSGVASLPPAKCQHQESLGRPRPHSAPSLGTSSLRDPEPSGRLGDPGPQEAQTPRSILAQQSKLSKPRVTFSEESAVPKRSWRLRPYLGYDWIAGSLDTSSSITSQPEAFFSKLQEFRETNKEECICSHPEPQLPGLRESSGSGVEEDHECVYCYRVNRRLFPVPVDPGTPCRLCRTPRDQQGPGTLAQPAHVRVSIPLSILEPPHRYHIHRRKSFDASDTLALPRHCLLGWDIFPPKSEKSSAPRNLDLWSSVSAEAQHQKLSGTSSPFHPASPMQMLPPTPTWSVPQVPRPHVPRQKP
partner: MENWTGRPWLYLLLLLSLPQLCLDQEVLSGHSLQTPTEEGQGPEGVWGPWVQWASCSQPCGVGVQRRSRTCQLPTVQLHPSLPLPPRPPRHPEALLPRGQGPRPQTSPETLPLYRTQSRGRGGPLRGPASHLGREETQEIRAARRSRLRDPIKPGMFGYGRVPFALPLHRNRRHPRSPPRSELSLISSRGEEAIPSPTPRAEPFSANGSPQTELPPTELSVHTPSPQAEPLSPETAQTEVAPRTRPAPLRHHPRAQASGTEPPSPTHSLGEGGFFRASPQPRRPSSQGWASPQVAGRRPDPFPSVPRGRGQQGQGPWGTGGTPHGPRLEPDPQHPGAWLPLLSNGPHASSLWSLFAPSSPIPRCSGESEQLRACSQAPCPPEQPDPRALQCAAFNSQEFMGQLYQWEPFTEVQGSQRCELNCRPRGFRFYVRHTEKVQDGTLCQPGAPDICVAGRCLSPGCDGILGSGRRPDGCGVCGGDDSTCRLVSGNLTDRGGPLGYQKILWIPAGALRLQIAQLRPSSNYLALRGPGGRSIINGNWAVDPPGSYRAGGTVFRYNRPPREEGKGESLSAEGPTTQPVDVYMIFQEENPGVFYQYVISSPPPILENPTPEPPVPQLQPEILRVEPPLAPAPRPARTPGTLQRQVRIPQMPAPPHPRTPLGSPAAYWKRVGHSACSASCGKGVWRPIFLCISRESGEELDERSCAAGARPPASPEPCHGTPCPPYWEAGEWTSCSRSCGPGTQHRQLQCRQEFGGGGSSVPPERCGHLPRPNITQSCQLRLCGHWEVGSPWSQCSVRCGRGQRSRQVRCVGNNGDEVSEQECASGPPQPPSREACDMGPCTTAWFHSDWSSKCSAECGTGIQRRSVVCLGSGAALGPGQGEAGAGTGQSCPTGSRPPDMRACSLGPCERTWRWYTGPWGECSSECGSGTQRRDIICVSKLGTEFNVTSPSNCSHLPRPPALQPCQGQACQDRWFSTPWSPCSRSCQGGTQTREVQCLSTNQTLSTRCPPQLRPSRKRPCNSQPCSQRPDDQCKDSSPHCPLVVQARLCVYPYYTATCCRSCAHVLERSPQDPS
B4: Tuftelin-interacting protein 11 (Homo sapiens), Q9UBB9 (parent)
chain: MSLSHLYRDGEGRIDDDDDERENFEITDWDLQNEFNPNRQRHWQTKEEATYGVWAERDSDDERPSFGGKRARDYSAPVNFISAGLKKGAAEEAELEDSDDEEKPVKQDDFPKDFGPRKLKTGGNFKPSQKGFAGGTKSFMDFGSWERHTKGIGQKLLQKMGYVPGRGLGKNAQGIINPIEAKQRKGKGAVGAYGSERTTQSMQDFPVVDSEEEAEEEFQKELSQWRKDPSGSKKKPKYSYKTVEELKAKGRISKKLTAPQKELSQVKVIDMTGREQKVYYSYSQISHKHNVPDDGLPLQSQQLPQSGKEAKAPGFALPELEHNLQLLIDLTEQEIIQNDRQLQYERDMVVNLFHELEKMTEVLDHEERVISNLSKVLEMVEECERRMQPDCSNPLTLDECARIFETLQDKYYEEYRMSDRVDLAVAIVYPLMKEYFKEWDPLKDCTYGTEIISKWKSLLENDQLLSHGGQDLSADAFHRLIWEVWMPFVRNIVTQWQPRNCDPMVDFLDSWVHIIPVWILDNILDQLIFPKLQKEVENWNPLTDTVPIHSWIHPWLPLMQARLEPLYSPIRSKLSSALQKWHPSDSSAKLILQPWKDVFTPGSWEAFMVKNIVPKLGMCLGELVINPHQQHMDAFYWVIDWEGMISVSSLVGLLEKHFFPKWLQVLCSWLSNSPNYEEITKWYLGWKSMFSDQVLAHPSVKDKFNEALDIMNRAVSSNVGAYMQPGARENIAYLTHTERRKDFQYEAMQERREAENMAQRGIGVAASSVPMNFKDLIETKAEEHNIVFMPVIGKRHEGKQLYTFGRIVIYIDRGVVFVQGEKTWVPTSLQSLIDMAK
partner: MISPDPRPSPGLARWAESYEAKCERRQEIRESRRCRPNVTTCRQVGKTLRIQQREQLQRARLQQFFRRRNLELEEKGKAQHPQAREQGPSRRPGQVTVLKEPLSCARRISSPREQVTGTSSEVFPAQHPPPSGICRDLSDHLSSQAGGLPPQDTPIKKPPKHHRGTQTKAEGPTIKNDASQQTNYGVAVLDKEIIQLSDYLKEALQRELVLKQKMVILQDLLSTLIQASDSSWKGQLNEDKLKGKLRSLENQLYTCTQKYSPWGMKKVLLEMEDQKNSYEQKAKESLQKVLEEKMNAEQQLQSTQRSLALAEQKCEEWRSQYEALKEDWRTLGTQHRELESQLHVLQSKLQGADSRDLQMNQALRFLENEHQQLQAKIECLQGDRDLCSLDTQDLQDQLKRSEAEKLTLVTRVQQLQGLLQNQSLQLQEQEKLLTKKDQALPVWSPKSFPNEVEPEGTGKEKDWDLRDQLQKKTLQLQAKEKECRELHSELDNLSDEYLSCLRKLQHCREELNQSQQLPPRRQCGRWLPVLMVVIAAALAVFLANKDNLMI
B5: Coiled-coil domain-containing protein 33 (Homo sapiens), Q8N5R6-5 (parent)
chain: MGEPGPPSPPAPKAAPGLIDSFSEMNNYRRAMQKMAEDILSLRRQASILEGENRILRSRLAQQEEEEGQGKASEAQNTVSMKQKLLLSELDMKKLRDRVQHLQNELIRKNDREKELLLLYQAQQPQAALLKQYQGKLQKMKALEETVRHQEKVIEKMERVLEDRLQDRSKPPPLNRQQGKPYTGFPMLSASGLPLGSMGENLPVELYSVLLAENAKLRTELDKNRHQQAPIILQQQALPVDPGELGAGGDLTERLQETHGPGHSECTETLPAQDLLSGTSDKFNLLAKLEHAQSRILSLESQLEDSARRWGREKQDLATRLQEQEKGFRHPSNSIIIEQPVSDPPGVAPRGSGGGAGSHRTPKVTGP
partner: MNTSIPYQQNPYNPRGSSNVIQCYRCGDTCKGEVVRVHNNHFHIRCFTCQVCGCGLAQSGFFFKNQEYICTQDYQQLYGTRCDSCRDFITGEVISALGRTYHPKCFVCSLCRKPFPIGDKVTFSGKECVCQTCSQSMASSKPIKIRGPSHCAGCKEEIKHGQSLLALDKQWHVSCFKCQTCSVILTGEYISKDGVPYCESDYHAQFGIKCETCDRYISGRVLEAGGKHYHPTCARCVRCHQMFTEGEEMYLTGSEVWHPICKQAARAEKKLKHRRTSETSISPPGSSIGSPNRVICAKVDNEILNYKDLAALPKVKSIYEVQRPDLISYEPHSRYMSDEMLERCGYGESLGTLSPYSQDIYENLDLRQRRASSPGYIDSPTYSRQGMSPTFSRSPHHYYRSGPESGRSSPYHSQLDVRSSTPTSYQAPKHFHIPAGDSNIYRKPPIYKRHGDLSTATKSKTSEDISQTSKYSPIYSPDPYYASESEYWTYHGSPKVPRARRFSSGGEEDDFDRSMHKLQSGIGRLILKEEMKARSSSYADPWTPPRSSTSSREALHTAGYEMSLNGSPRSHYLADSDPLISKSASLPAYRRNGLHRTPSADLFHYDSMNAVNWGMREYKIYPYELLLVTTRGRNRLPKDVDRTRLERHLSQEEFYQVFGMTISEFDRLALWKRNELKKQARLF

Variants of: B1
Settings: with caco2_human CALCOCO2, Q13137

Variant | effect of a mutation on the interaction
R369Q | with no effect
M410V | with no effect

Variants of: B2
Settings: with meox2_human MEOX2, P50222
Chain of meox2_human MEOX2, P50222 (P50222 whole entry): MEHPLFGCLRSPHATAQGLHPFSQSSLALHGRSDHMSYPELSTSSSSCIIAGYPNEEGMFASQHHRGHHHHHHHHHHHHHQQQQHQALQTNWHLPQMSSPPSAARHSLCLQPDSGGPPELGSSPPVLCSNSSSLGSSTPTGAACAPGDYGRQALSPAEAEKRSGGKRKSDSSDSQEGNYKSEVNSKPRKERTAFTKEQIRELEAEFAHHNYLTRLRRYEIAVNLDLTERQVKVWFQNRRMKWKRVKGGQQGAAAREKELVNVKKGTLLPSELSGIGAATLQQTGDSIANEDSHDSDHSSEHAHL

Variant | effect of a mutation on the interaction
A16T | with no effect

Variants of: B3
Settings: with atl4_human ADAMTSL4, Q6UY14

Variant | effect of a mutation on the interaction
R171C | with no effect

Variants of: B4
Settings: with TRAF3IP3, Q9Y228

Variant | effect of a mutation on the interaction
M140V | with no effect

Variants of: B5
Settings: with ablm3_human ABLIM3, O94929

Variant | effect of a mutation on the interaction
R30L | with no effect
